Drawing on EP1086956B1, this text covers minimum measurable concentration for one molecule.

The assay concerns the target soluble human VEGF receptor Flt-1 3N (human) (UniProt P17948). In words: sandwich ELISA, KM1732 coated at 10 µg/ml, detection with biotin-labeled KM1730.
UniProt P17948, sequence (P17948 27-338 limits assumed): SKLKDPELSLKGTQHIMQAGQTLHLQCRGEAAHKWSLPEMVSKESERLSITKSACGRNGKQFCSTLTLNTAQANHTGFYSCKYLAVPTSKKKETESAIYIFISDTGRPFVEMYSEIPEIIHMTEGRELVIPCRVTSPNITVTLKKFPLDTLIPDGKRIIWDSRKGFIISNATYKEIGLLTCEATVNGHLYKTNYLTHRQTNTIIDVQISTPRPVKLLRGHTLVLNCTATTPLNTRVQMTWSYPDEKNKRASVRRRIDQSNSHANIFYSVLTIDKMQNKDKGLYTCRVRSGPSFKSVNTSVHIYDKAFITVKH

B1: anti-human VEGF receptor Flt-1 mouse monoclonal antibody KM1732 (antibody, from another filing, mouse IgG1, V domains shown)
VH: QGQMQQSGAELVKPGASVKLSCKPSGFTFSSNYISWLKQKPGQSLEWIAWIYAGTGDASYNQKFTAKAHVTVDTSSSTAYMQLSSLTTEDSAIYYCARHGGDGYWFAYWGQGTLVTVSA
VL: QLVLTQSPAIMSASQGEKVTMTCSASSSVSYMHWYQQKSGTSPKRWIYDTSKLPSGVPARFSGSGSGTSYSLTISSMEAEDAATYYCQQWSSNPPTFGAGTKLELK
B1 came in with a minimum measurable concentration of 0.46 ng/mL.
